# Assay results published in IntAct's records for PubMed 12679340.
# B1: Ornithine carbamoyltransferase (Saccharomyces cerevisiae), P05150 (parent)
# chain: MSTTASTPSSLRHLISIKDLSDEEFRILVQRAQHFKNVFKANKTNDFQSNHLKLLGRTIALIFTKRSTRTRISTEGAATFFGAQPMFLGKEDIQLGVNESFYDTTKVVSSMVSCIFARVNKHEDILAFCKDSSVPIINSLCDKFHPLQAICDLLTIIENFNISLDEVNKGINSKLKMAWIGDANNVINDMCIACLKFGISVSISTPPGIEMDSDIVDEAKKVAERNGATFELTHDSLKASTNANILVTDTFVSMGEEFAKQAKLKQFKGFQINQELVSVADPNYKFMHCLPRHQEEVSDDVFYGEHSIVFEEAENRLYAAMSAIDIFVNNKGNFKDLK
# Variants of: B1
# Conditions: with argi_yeast CAR1, P00812
# Chain of argi_yeast CAR1, P00812 (P00812 whole entry): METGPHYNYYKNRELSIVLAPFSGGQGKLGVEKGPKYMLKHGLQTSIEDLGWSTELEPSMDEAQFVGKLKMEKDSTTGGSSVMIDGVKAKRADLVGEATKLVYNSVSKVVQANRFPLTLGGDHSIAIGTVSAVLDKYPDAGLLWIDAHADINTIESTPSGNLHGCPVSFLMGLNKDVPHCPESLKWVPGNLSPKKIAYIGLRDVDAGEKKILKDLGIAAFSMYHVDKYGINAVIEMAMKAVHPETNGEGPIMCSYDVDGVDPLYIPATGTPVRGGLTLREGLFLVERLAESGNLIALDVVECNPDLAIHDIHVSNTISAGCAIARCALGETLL
row,Variant,effect of a mutation on the interaction
1,D182N,decreasing interaction
